From US20160280792A1 (Kyowa Kirin, published 2016) come the findings set out here.

Broadly, the Kd is the constant that tells how readily two partners part at equilibrium. A lower Kd goes with a tighter complex.

For assay [1], the target named is T1, IL-3Rα/GM-CSFRα chimeric protein, region 1 (55-DADYSMP-61) of IL-3Rα replaced by GM-CSFRα sequence, on … (human, UniProt P26951 19-378).
T1 construct: Built on IL-3RA-FLAG/pEGFP-N1; they are my translation of the primers; also called Region 1 (A)
T1 chain: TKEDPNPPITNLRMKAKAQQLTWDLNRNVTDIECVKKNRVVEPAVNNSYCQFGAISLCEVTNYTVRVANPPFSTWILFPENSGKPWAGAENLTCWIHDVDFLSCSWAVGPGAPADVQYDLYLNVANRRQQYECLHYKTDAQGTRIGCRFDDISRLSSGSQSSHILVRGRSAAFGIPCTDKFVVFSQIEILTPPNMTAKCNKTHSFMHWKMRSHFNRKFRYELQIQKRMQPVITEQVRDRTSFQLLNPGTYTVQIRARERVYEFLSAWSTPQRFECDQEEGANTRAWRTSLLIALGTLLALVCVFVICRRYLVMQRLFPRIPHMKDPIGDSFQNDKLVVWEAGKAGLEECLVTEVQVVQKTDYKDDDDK
The assay can be described thus: flow cytometry, labelled antibody at 1 µg/ml, HEK293T cells expressing the construct.

Assay [2] addresses T2, IL-3Rα/GM-CSFRα chimeric protein, A domain of IL-3Rα replaced by that of GM-CSFRα, on HEK293T cells (human, UniProt P15509 23-114).
T2 construct: domain: A domain; The KpnI site (GGTACC) at the junction encodes an extra Gly-Thr; also called A domain substitution
T2 sequence: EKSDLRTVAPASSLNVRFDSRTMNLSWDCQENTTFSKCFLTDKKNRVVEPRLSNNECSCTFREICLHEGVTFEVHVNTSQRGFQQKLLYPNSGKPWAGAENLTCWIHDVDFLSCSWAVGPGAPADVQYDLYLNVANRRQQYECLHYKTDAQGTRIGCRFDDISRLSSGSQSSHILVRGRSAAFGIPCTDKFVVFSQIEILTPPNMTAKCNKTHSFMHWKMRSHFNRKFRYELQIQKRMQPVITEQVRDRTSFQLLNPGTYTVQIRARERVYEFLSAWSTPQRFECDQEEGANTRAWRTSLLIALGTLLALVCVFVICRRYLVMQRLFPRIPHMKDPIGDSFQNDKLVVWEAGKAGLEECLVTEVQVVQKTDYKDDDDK
The assay is described as above. The protocol: HEK293T cell (ATCC CRL 1268) was used for the preparation of the IL-3Rα/GM-CSFRα chimeric protein expression cell. Using 293Fectin (Invitrogen), the plasmid DNA obtained in the above was introduced as an expression vector into the HEK293T. The HEK293T to which the expression vector was introduced was cultured using a shaker under conditions of 5% CO₂ and 37° C. after 2 days of the introduction, the […] was used for in the flow cytometry analysis.
From 100,000 to 1,000,000 cells of the chimeric protein expression cell were allowed to react for 30 minutes on ice with at a concentration of 1 μg/ml with an AlexaFlour488-labeled human antibody or a commercially available FITC-labeled anti-IL-3Rα mouse antibody (7G3 or 9F5: both from BD Biosciences, 6H6: Acris Antibodies, AC145: Milteny Biotech, 107D2.08: Dendritics). A staining medium (Dulbecco's PBS supplemented with 2% fetal bovine serum, 2 mM EDTA and 0.05% NaN₃) was used for the dilution of antibodies and cells. Next, the cells reacted with antibodies were washed three times with the staining medium and whether the labeled antibody bound to the cell was confirmed by flow cytometry.

Assay [3] addresses T3, soluble form of human IL-3Rα protein (extracellular region with C-terminal FLAG tag) (human, UniProt P26951 19-305).
T3 construct: Made in CHOras1 cells, purified on anti-FLAG gel; also called soluble form of IL-3Rα protein; soluble form of human IL-3Rα extracellular region
T3 sequence: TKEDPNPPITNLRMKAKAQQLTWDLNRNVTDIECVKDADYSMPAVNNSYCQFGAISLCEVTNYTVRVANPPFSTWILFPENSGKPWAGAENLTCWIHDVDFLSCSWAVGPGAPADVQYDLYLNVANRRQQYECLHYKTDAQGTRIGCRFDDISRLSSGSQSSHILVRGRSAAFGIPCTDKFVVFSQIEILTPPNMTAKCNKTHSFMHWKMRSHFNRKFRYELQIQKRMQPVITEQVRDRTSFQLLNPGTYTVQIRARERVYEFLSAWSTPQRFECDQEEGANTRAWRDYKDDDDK
The assay can be described thus: SPR (Biacore 2000): antibody captured on anti-mouse antibody CM5 chip, soluble IL-3Rα as analyte, 1:1 Langmuir fit. As for the experimental part: Specifically, CM5 (research grade) was used for a sensor tip (each GE). Firstly, the CM5 tip was activated by applying an equivalent mixture of 400 mM EDC (N-ethyl-N′-(3-dimethylaminopropyl)carbodiimidehydrochloride) and 100 mM NHS (N-hydroxysuccinimide) to the CM5 tip. Next, an antibody to the human antibody attached to the Human Antibody Capture Kit (GE) (hereinafter, referred to as anti-human antibody antibody) was diluted with the solution attached to the kit and applied thereto, thereby immobilizing the required amount of the anti-human antibody antibody to the CM5 tip. Regarding the mouse antibody to be used as a control, an antibody to the mouse antibody attached to the Mouse Antibody Capture Kit (GE) (hereinafter, referred to as anti-mouse antibody antibody) was diluted with the solution attached to the kit and applied thereto, thereby immobilizing a necessary amount thereof to the CM5 tip. […]
In the analysis, Biaevaluation software (GE) was used and Biaevaluation Software Handbook was referred. Specifically, by carrying out simultaneous analysis of kinetics analysis, employing basically the 1:1 Langmuir binding reaction model and fitting, association rate constant (Ka) and dissociation rate constant (Kd) were calculated, and the value of dissociation constant KD was calculated by the calculation of Kd/Ka.
In general terms: In SPR one partner is held on a chip, and binding of the other changes the refractive index at the surface.

B1: anti-human IL-3Rα mouse antibody 7G3 (antibody, V domains shown)
VH: EVQLQQSGPELVKPGASVKMSCKASGYTFTDYYMKWVKQSHGKSLEWIGDIIPSNGATFYNQKFKGKATLTVDRSSSTAYMHLNSLTSEDSAVYYCTRSHLLRASWFAYWGQGTLVTVSA
VL: DFVMTQSPSSLTVTAGEKVTMSCKSSQSLLNSGNQKNYLTWYLQKPGQPPKLLIYWASTRESGVPDRFTGSGSGTDFTLTISSVQAEDLAVYYCQNDYSYPYTFGGGTKLEIK
notes: Mouse antibody; the material used in flow cytometry was bought (BD Biosciences, FITC-labelled); Light chain start see note of m7; also called 7G3 (Mouse antibodies); FITC-labeled 7G3 (BD Biosciences)
As for B1, the binding result in assay [1] and in assay [2] was “no binding (tested: 1 µg/ml)” in each case. This molecule also showed a dissociation constant Kd in assay [3] of 0.566 nM.
